Patent publication US20230192845A1

What was measured:
[1] = target: human CD96 short isoform v2 expressed on CHO cells (human) (UniProt P40200); assay: FCM on hCD96v2-CHO cells
[2] = target: T1, hCD96-humanIgG1 fusion protein (human) (UniProt P40200); assay: SPR (Biacore), hCD96-hFc captured by anti-huFc
T1 sequence: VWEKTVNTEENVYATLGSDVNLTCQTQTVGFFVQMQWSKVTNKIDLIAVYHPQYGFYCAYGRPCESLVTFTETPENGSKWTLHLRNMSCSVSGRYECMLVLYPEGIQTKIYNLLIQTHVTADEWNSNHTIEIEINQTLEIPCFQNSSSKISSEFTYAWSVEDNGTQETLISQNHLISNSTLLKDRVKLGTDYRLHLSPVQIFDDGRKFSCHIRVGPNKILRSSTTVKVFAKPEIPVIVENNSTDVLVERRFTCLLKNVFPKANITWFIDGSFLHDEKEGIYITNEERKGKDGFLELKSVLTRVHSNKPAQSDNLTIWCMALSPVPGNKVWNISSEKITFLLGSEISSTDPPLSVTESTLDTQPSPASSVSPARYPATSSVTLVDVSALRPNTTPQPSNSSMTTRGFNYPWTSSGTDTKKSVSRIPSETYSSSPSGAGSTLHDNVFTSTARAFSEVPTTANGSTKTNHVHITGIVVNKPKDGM

[3] = target: human CD96 short isoform v2 expressed on CHO cells (human) (UniProt P40200); assay: FCM, inhibition of hCD155-Fc binding to hCD96v2-CHO cells
[4] = target: hCD96-HA tagged protein transiently expressed on CHO cells (FRET assay) (human) (UniProt P40200); assay: FRET between anti-HA-PE and anti-HA-APC by flow cytometry on CHO cells transfected with hCD96-HA; right-hand plot; the left-hand plot of the panel prints FRET 0,10% (taken as the pooled negative control)
[5] = target: hCD226-His tagged protein transiently expressed on CHO cells (human) (UniProt Q15762); assay: FRET between anti-hCD226-PE (DX11) and anti-HA-APC by flow cytometry on CHO cells transfected with hCD96-HA and hCD226-His; right-hand plot; the left-hand plot of the panel prints FRET 0,22% (taken as the pooled negative control)
hCD226-His tagged protein transiently expressed on CHO cells (human), sequence (Q15762 19-336): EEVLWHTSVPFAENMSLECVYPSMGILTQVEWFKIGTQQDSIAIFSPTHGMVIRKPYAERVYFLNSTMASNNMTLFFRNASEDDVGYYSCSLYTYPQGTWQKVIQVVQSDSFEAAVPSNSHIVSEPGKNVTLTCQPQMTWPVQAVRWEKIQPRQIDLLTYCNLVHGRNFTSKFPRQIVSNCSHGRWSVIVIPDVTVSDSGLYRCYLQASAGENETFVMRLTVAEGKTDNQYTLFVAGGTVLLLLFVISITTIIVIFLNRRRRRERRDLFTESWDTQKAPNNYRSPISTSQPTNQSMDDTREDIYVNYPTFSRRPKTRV

Row | Substance | EC50 [1] [nM] | Maximum binding (delta MFI) [1] [delta MFI] | Kd [2] [nM] | koff [2] [s⁻¹] | kon [2] [M⁻¹ s⁻¹] | IC50 [3] [nM] | Maximal Inhibition Capacity (%) [3] [%] | FRET (% of cells in the FRET gate) [4] [%] | FRET (% of cells in the FRET gate) [5] [%]
1 | NK92.39 (antibody) | 1.59 | 283000 | 3.24 | 0.000346 | 107000 | 10.4 | 100 |  | 
2 | clone 628211 (antibody) | 3.75 | 543000 |  |  |  | 15.8 | 100 |  | 
3 | hCD96-HA tagged protein transiently expressed on CHO cells (FRET assay) (from UniProt P40200 22-585) (receptor) |  |  |  |  |  |  |  | 11.6 | 17.9
